Consider five molecules from patent US20250250593A1, “METHOD FOR PREPARING ALPHA-BRANCHED BETA'-HYDROXY CARBONYL COMPOUNDS BY ENZYMATIC-CATALYZED REDUCTIVE ALDOL REACTION” (Max-Planck-Gesellschaft zur Förderung der Wissenschaften …, priority 2022, published 2025).

The target in data set [1] is T1, Kitasatospora setae crotonyl-CoA carboxylase/reductase (KsCcr) variant His365Asn (H365N), SEQ ID NO: 19 (Kitasatospora setae, UniProt E4N096, H365N).
T1 construct: gene provided by JGI
T1 sequence (E4N096 1-445 H365N): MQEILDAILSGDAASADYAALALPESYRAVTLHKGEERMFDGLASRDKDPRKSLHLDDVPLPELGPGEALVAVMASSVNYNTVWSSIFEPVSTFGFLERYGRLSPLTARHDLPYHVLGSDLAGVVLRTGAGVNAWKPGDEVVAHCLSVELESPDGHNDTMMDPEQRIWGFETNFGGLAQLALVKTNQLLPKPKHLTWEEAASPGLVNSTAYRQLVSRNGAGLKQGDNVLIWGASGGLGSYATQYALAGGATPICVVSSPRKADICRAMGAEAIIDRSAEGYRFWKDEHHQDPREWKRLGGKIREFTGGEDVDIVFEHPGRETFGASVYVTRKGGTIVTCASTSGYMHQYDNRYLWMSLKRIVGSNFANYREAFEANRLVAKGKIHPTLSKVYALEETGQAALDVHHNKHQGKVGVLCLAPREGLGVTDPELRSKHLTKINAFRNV
The experiment in a line: Steady-state kinetics of the reductive aldol reaction (crotonyl-CoA + formaldehyde + NADPH). In kind it is biochemical. On the procedure: His-tagged KsCcr and its variants were expressed in E. coli BL21 (DE3). Cells in terrific broth were grown at 37° C. to an OD600=0.8-1.0 upon which expression for 12-16 h at 23° C. was induced by the addition of 500 μM IPTG (Isopropyl-D-β-thiogalactopyranoside). Cells were harvested for 15 min at 7500× g at 4° C. then resuspended in 2 mL of buffer A (50 mM Tris, 500 mM NaCl, 1 M L-Proline, pH=7.5) per gram of pellet. The suspension was treated with […] of DNAse I, 5 mM MgCl2, 10 μg/ml of lysozyme and incubated on ice for 20 min upon which cells were lysed using a sonicator. The lysate was clarified at 45000× g at 4° C. for 40 min and then loaded onto a pre-equilibrated 1 mL HisTrap FF column and washed with 15% buffer B (50 mM Tris, 500 mM NaCl, 1 M L-Proline, 500 mM imidazole, pH=7.5) for 20-30 column volumes until the UV 280 nm reached the baseline level. […]
Formaldehyde stock solution concentration was determined by following the formation of phenylhydrazone at 368 nm (εPhenylhydrazone,368 nm=6.1 mM^−1 cm^−1). […]
For reactions in which the full conversion to the aldol product was achieved assays were performed on a Cary-60 UV/Vis spectrophotometer (Agilent) at 30° C. using quartz cuvettes (1 mm, 3 mm or 10 mm path length; Hellma). […] Kinetic parameters for one substrate were determined by varying its concentration while the others were kept constant at 10 times their KM value.

Substrate in data set [2]: NC(=O)C1=CN([C@@H]2O[C@H](COP(=O)(O)OP(=O)(O)OC[C@H]3O[C@@H](n4cnc5c(N)ncnc54)[C@H](OP(=O)(O)O)[C@@H]3O)[C@@H](O)[C@H]2O)C=CC1
The experiment in a line: cells, lysate or membranes named. Particulars: other: apparent KM, 100 mM K2HPO4 pH 8.0, 30 °C, other substrates at 10 times KM, mean ± standard error.

Substrate in data set [3]: C/C=C/C(=O)SCCNC(=O)CCNC(=O)[C@H](O)C(C)(C)COP(=O)(O)OP(=O)(O)OC[C@H]1O[C@@H](n2cnc3c(N)ncnc32)[C@H](O)[C@@H]1OP(=O)(O)O
The experiment in a line: cells, lysate or membranes named. The data set is classed as biochemical, Kitasatospora setae. The settings on record: other substrates at 10 times KM, mean ± standard error.
Method: (§1) His-tagged KsCcr and its variants were expressed in E. coli BL21 (DE3). Cells in terrific broth were grown at 37° C. to an OD600=0.8-1.0 upon which expression for 12-16 h at 23° C. was induced by the addition of 500 μM IPTG (Isopropyl-D-β-thiogalactopyranoside). Cells were harvested for 15 min at 7500× g at 4° C. then resuspended in 2 mL of buffer A (50 mM Tris, 500 mM NaCl, 1 M L-Proline, pH=7.5) per gram of pellet. The suspension was treated with 10 mg/mL of DNAse I, 5 mM MgCl2, 10 μg/ml of lysozyme and incubated on ice for 20 min upon which cells were lysed using a sonicator. The lysate was clarified at 45000× g at 4° C. for 40 min and then loaded onto a pre-equilibrated 1 mL HisTrap FF column and washed with 15% buffer B (50 mM Tris, 500 mM NaCl, 1 M L-Proline, 500 mM imidazole, pH=7.5) for 20-30 column volumes until the UV 280 nm reached the baseline level. The protein was eluted by applying 100% buffer B, collected then pooled and desalted into 12.5 mM Tris, 125 mM NaCl, 1 M L-Proline pH=7.5. […] The protein was flash frozen in N2 (I) and stored at −80° C. if not immediately used for assays.
(§2) Assays were performed on a Cary-60 UV/Vis spectrophotometer (Agilent) at 30° C. using quartz cuvettes (10 mm path length; Hellma) contained K2HPO4 pH=8.0 and 3 mM phenylhydrazine.
(§3) For reactions in which the full conversion to the aldol product was achieved assays were performed on a Cary-60 UV/Vis spectrophotometer (Agilent) at 30° C. using quartz cuvettes (1 mm, 3 mm or 10 mm path length; Hellma). Reactions were performed in 100 mM K2HPO4 pH=8.0. Kinetic parameters for one substrate were determined by varying its concentration while the others were kept constant at 10 times their KM value. […] For reactions where both butyryl-CoA and the aldol product where formed the steady state parameters were determined using a discontinuous assay. Reactions of 100 μL volume were performed in 100 mM K2HPO4 pH=8.0 at 30° C. and each concentration was assayed in triplicates. Samples of 20 μL reaction were quenched with 2 μL of 50% formic acid and centrifuged for 10 min at 17′000 g at 4° C. 10 μL of this solution were diluted in 40 μL of 500 mM Tris HCl pH=7 and incubated overnight at room temperature. Samples were analyzed using by HPLC over an Agilent Eclipse Plus C18, 3.5 μm 100 Å, 100×2.1 mm, 4.6×100 mm column using 5% to 30% acetonitrile gradient over 7.5 min with 25 mM ammonium formate pH=8.1 as the aqueous phase.

Substrate in data set [4]: C=O
The experiment in a line: cells, lysate or membranes named. In kind it is biochemical, Kitasatospora setae. The settings on record: other: calculated with K = 1000 for the equilibrium between formaldehyde and its methylene diol form, pH 8.0, 30 °C.
Method: as §1, §2, §3

Substrate in data set [5]: NC(=O)C1=CN([C@@H]2O[C@H](COP(=O)(O)OP(=O)(O)OC[C@H]3O[C@@H](n4cnc5c(N)ncnc54)[C@H](OP(=O)(O)O)[C@@H]3O)[C@@H](O)[C@H]2O)C=CC1
The experiment in a line: cells, lysate or membranes named. The data set is classed as biochemical, Kitasatospora setae. Particulars: other: 100 mM K2HPO4 pH 8.0, 30 °C, other substrates at 10 times KM, mean ± standard error.
Method: as §1, §2, §3

Data set [6] relates to KsCcr. The experiment in a line: HPLC analysis of reaction products: 2-HMB-CoA formed over total products from crotonyl-CoA and formaldehyde. The settings on record: for Ratio of 2-HMB-CoA formed over total products: triplicates, mean ± standard deviation, values given as %. In kind it is biochemical, Kitasatospora setae. An excerpt:
KsCcr wild-type (WT) natively promotes the NADPH-dependent reductive carboxylation of crotonyl-CoA into ethylmalonyl-CoA. […] Under these conditions, neither ethylmalonyl-CoA (carboxylation product) nor butyryl-CoA (reduction side product) were detected with LC-MS (see Table 2 further below). […] The compound was isolated and its structure was further verified using 2-dimensional NMR and high-resolution MS experiments. […] The newly introduced carbon was also observed in the ^13C-NMR experiment, confirming formation of aldol product 2-HMB-CoA by KsCcr.
The reaction was diluted 10 times into 5% methanol/Buffer 8.1 and analyzed by HPLC over an Agilent Eclipse Plus C18, 3.5 μm 100 Å, 100×2.1 mm, […] column using 5% to 30% acetonitrile gradient over 7.5 min with 25 mM ammonium formate pH=8.1 as the aqueous phase.

The subject of data set [7] is KsCcr. The experiment in a line: Native reductive carboxylation of crotonyl-CoA with CO2. In kind it is biochemical, Kitasatospora setae. The settings on record: CO2 as electrophile.
Where [8] appears, read: other: apparent KM, 100 mM K2HPO4 pH 8.0, 30 °C.
Where [9] appears, read: other: 100 mM K2HPO4 pH 8.0, 30 °C.

`C=O` [formaldehyde]: the “apparent catalytic rate relative to WT enzyme” value in data set [1] (decreased to % of the WT enzyme) is 10%. For the same molecule, in data set [1] (fold increase compared to WT), the “apparent KM for formaldehyde, increase compared to WT” value was “two-fold”.

B1: Kitasatospora setae crotonyl-CoA carboxylase/reductase (KsCcr), wild type (WT), SEQ ID NO: 1 (Kitasatospora setae KM-6054) (protein)
chain: MQEILDAILSGDAASADYAALALPESYRAVTLHKGEERMFDGLASRDKDPRKSLHLDDVPLPELGPGEALVAVMASSVNYNTVWSSIFEPVSTFGFLERYGRLSPLTARHDLPYHVLGSDLAGVVLRTGAGVNAWKPGDEVVAHCLSVELESPDGHNDTMMDPEQRIWGFETNFGGLAQLALVKTNQLLPKPKHLTWEEAASPGLVNSTAYRQLVSRNGAGLKQGDNVLIWGASGGLGSYATQYALAGGATPICVVSSPRKADICRAMGAEAIIDRSAEGYRFWKDEHHQDPREWKRLGGKIREFTGGEDVDIVFEHPGRETFGASVYVTRKGGTIVTCASTSGYMHQYDNRYLWMSLKRIVGSHFANYREAFEANRLVAKGKIHPTLSKVYALEETGQAALDVHHNKHQGKVGVLCLAPREGLGVTDPELRSKHLTKINAFRNV
notes: gene provided by JGI
The Km is the concentration of substrate that gives half-maximal velocity. A word on the kcat: it is the number of substrate molecules converted per active site and unit of time at saturation. Consider B1, for which the Km in data set [2] is 389 ± 49 µM. Besides, in data set [3] (setting [8]), the Km was 33 ± 4 µM and the kcat is 30 ± 1 s⁻¹.

B2: Kitasatospora setae crotonyl-CoA carboxylase/reductase (KsCcr) variant His365Asn (H365N), SEQ ID NO: 19 (Kitasatospora setae KM-6054; H365N) (protein)
chain: MQEILDAILSGDAASADYAALALPESYRAVTLHKGEERMFDGLASRDKDPRKSLHLDDVPLPELGPGEALVAVMASSVNYNTVWSSIFEPVSTFGFLERYGRLSPLTARHDLPYHVLGSDLAGVVLRTGAGVNAWKPGDEVVAHCLSVELESPDGHNDTMMDPEQRIWGFETNFGGLAQLALVKTNQLLPKPKHLTWEEAASPGLVNSTAYRQLVSRNGAGLKQGDNVLIWGASGGLGSYATQYALAGGATPICVVSSPRKADICRAMGAEAIIDRSAEGYRFWKDEHHQDPREWKRLGGKIREFTGGEDVDIVFEHPGRETFGASVYVTRKGGTIVTCASTSGYMHQYDNRYLWMSLKRIVGSNFANYREAFEANRLVAKGKIHPTLSKVYALEETGQAALDVHHNKHQGKVGVLCLAPREGLGVTDPELRSKHLTKINAFRNV
notes: gene provided by JGI
Regarding B2, the Km in data set [4] is 66 ± 23 µM; in data set [5], 16 ± 7 µM; in data set [3] (setting [9]), 69 ± 17 µM. In addition, the kcat in data set [4] and in data set [3] (setting [9]) was 3.1 ± 0.2 s⁻¹ each time.

B3: KsCcr variant Asn81Leu: KsCcr active site variant Asn81Leu, SEQ ID NO: 20 (protein)
chain: MQEILDAILSGDAASADYAALALPESYRAVTLHKGEERMFDGLASRDKDPRKSLHLDDVPLPELGPGEALVAVMASSVNYLTVWSSIFEPVSTFGFLERYGRLSPLTARHDLPYHVLGSDLAGVVLRTGAGVNAWKPGDEVVAHCLSVELESPDGHNDTMMDPEQRIWGFETNFGGLAQLALVKTNQLLPKPKHLTWEEAASPGLVNSTAYRQLVSRNGAGLKQGDNVLIWGASGGLGSYATQYALAGGATPICVVSSPRKADICRAMGAEAIIDRSAEGYRFWKDEHHQDPREWKRLGGKIREFTGGEDVDIVFEHPGRETFGASVYVTRKGGTIVTCASTSGYMHQYDNRYLWMSLKRIVGSHFANYREAFEANRLVAKGKIHPTLSKVYALEETGQAALDVHHNKHQGKVGVLCLAPREGLGVTDPELRSKHLTKINAFRNV
modifications: KsCcr variant Asn81Leu
For B3, the “Ratio of 2-HMB-CoA formed over total products” value was 35 ± 0 in data set [6] (5 mM formaldehyde) and 64 ± 2 in data set [6] (75 mM formaldehyde). Further, the “2-HMB-CoA produced (reductive aldol product)” value in data set [6] (75 mM formaldehyde) was “up to 64%”. Moreover, the “carboxylation of crotonyl-CoA” value in data set [7] (C2-ene adduct accumulates) is “completely impaired”.

B4: KsCcr variant Phe170Ala: KsCcr variant Phe170Ala, SEQ ID NO: 23 (protein)
chain: MQEILDAILSGDAASADYAALALPESYRAVTLHKGEERMFDGLASRDKDPRKSLHLDDVPLPELGPGEALVAVMASSVNYNTVWSSIFEPVSTFGFLERYGRLSPLTARHDLPYHVLGSDLAGVVLRTGAGVNAWKPGDEVVAHCLSVELESPDGHNDTMMDPEQRIWGAETNFGGLAQLALVKTNQLLPKPKHLTWEEAASPGLVNSTAYRQLVSRNGAGLKQGDNVLIWGASGGLGSYATQYALAGGATPICVVSSPRKADICRAMGAEAIIDRSAEGYRFWKDEHHQDPREWKRLGGKIREFTGGEDVDIVFEHPGRETFGASVYVTRKGGTIVTCASTSGYMHQYDNRYLWMSLKRIVGSHFANYREAFEANRLVAKGKIHPTLSKVYALEETGQAALDVHHNKHQGKVGVLCLAPREGLGVTDPELRSKHLTKINAFRNV
modifications: KsCcr variant Phe170Ala
As for B4, the “Ratio of 2-HMB-CoA formed over total products” value is on record as 17 ± 0 in data set [6] (5 mM formaldehyde) and 64 ± 0 in data set [6] (75 mM formaldehyde). Also, in data set [6] (75 mM formaldehyde), the “2-HMB-CoA produced (reductive aldol product)” value is “up to 64%”. Also, the reductive carboxylation in data set [7] is 17%.
